Target: recombinant wild-type human alpha-synuclein (human) (UniProt P37840)
Test: cell-based or functional assay

Sequence of Polo like kinase 2 (PLK2) (Q9NYY3 whole entry): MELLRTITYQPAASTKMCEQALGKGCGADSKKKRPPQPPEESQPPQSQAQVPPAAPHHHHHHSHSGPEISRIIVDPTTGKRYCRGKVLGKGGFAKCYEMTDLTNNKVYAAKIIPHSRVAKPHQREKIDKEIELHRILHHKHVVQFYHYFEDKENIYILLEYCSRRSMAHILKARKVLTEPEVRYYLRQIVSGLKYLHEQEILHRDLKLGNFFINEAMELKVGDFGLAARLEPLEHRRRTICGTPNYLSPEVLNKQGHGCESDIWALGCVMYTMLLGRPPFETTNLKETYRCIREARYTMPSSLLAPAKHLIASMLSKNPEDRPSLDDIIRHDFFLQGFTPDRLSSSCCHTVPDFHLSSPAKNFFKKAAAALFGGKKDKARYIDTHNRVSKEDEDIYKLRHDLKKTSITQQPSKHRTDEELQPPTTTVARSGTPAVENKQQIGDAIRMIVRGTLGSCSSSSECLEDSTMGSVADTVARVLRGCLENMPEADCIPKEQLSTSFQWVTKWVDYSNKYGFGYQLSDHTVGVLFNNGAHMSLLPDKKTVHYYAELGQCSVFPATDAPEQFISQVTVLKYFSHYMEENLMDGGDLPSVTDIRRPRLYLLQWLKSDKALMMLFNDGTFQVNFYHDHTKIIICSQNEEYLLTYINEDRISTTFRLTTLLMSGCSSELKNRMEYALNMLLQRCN
Sequence of G protein-coupled receptor kinase 6 (GRK6) (P43250 whole entry): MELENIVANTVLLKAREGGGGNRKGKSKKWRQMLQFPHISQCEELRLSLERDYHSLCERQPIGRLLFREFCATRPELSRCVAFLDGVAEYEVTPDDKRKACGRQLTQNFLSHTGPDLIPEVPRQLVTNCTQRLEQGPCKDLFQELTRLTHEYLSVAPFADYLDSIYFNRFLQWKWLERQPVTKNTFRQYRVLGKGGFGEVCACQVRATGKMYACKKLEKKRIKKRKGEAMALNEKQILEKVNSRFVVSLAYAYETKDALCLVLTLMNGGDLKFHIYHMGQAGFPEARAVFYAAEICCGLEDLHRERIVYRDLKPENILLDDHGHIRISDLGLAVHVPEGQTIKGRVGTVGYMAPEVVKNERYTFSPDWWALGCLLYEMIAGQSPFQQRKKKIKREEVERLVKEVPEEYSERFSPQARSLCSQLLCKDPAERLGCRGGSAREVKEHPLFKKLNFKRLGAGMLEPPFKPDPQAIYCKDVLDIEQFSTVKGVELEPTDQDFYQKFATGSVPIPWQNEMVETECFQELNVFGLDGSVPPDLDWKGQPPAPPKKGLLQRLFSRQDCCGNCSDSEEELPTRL
Sequence of CDC7 cell division cycle 7-like 1 (CDC7L1) (O00311 whole entry): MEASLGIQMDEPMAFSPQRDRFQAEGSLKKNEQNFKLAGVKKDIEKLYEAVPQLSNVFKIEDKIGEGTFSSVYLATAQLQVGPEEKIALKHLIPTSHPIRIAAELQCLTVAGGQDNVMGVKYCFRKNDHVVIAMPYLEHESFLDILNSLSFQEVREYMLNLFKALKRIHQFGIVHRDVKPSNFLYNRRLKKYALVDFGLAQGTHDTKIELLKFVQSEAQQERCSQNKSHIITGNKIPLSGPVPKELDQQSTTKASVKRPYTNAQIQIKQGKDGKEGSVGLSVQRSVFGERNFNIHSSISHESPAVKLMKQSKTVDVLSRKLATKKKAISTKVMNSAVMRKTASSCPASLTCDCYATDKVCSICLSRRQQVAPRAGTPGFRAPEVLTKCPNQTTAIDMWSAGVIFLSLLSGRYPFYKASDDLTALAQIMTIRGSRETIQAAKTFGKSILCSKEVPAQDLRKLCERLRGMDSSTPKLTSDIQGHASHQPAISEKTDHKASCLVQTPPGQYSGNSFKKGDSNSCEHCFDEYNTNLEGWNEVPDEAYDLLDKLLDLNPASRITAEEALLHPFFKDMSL
Sequence of Aortic preferentially expressed gene 1 (APEG1) (Q15772 whole entry): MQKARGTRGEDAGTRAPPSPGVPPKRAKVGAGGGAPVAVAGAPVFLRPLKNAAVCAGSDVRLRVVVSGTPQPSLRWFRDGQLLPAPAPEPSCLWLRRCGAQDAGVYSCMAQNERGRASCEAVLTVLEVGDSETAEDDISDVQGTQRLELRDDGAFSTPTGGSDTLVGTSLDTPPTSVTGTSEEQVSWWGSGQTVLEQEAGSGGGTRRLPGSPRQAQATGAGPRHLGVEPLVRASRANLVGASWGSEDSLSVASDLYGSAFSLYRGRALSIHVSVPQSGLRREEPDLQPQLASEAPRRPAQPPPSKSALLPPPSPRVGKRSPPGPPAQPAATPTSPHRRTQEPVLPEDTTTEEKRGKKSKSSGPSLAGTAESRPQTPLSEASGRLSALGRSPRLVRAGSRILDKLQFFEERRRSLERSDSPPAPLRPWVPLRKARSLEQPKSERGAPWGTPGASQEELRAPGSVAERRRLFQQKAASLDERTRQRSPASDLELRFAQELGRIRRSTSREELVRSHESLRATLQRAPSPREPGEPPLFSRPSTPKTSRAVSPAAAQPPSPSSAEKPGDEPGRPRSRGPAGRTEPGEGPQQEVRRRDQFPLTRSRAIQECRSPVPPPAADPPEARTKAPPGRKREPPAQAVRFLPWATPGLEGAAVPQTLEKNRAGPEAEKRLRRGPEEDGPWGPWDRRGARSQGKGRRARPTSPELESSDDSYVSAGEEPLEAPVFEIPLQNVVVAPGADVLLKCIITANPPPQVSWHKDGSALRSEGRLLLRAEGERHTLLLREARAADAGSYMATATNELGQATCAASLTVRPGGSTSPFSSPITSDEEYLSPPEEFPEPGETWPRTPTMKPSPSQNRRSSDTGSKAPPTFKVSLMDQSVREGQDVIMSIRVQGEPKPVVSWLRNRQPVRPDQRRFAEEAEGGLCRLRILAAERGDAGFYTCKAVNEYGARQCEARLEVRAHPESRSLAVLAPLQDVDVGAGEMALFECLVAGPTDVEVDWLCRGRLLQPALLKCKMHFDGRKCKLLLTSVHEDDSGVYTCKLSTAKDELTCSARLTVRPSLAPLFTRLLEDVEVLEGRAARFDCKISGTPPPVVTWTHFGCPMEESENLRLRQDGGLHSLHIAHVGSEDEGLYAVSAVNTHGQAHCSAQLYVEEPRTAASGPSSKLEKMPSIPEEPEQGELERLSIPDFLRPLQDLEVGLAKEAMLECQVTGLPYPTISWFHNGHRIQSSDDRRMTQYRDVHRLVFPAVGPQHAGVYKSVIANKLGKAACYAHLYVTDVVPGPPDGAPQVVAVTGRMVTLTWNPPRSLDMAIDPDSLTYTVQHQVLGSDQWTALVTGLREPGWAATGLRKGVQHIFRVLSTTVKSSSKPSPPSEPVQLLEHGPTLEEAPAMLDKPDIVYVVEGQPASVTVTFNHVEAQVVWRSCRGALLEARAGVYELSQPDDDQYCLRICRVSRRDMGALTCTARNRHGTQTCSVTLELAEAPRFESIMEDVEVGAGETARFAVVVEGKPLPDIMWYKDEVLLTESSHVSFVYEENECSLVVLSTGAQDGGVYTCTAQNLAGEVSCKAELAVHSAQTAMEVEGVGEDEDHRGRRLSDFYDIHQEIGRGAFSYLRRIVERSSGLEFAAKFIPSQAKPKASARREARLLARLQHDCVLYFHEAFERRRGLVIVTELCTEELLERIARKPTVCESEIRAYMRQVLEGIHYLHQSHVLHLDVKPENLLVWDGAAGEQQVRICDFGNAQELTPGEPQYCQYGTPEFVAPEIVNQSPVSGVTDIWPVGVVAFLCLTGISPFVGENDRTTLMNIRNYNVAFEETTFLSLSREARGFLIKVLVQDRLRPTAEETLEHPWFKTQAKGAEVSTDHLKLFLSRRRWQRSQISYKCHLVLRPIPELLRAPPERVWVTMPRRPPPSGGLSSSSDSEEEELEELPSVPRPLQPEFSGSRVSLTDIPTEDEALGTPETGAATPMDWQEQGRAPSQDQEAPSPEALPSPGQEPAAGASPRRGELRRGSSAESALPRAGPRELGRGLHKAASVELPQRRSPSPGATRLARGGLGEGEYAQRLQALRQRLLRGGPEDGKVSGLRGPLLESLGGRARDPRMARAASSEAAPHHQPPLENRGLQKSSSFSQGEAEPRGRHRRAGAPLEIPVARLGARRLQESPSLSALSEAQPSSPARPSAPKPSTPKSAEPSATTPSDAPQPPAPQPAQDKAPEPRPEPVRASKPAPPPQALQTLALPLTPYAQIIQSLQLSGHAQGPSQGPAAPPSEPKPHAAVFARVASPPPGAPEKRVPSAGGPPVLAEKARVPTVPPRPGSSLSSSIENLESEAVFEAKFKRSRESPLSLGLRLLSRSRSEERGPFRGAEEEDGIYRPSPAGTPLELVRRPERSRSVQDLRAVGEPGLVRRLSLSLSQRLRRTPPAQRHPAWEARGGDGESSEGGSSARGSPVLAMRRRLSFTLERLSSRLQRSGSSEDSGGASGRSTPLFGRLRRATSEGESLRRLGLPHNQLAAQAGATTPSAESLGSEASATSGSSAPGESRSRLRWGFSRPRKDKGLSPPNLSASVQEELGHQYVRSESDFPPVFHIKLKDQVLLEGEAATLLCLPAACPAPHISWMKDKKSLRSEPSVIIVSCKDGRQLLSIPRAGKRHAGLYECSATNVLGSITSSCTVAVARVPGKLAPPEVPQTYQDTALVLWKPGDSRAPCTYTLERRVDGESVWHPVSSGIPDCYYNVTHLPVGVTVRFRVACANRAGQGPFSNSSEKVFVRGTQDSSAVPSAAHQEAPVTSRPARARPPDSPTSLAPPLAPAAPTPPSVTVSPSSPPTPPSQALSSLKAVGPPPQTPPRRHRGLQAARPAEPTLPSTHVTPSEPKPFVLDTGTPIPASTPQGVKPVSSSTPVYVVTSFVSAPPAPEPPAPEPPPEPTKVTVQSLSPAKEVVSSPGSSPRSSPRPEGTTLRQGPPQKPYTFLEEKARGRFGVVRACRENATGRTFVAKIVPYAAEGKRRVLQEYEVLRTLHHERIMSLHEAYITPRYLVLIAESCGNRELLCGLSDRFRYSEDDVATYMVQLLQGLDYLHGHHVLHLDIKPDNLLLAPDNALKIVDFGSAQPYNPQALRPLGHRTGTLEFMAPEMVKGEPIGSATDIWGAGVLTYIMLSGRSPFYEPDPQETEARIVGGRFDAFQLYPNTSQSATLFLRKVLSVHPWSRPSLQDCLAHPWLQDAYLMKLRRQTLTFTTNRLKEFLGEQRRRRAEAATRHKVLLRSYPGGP

Aortic preferentially expressed gene 1 (APEG1) (from UniProt Q15772 1-3267) (enzyme)
percentage of phospho-synuclein, ELISA, PEAK-Syn cells transfected with kinase cDNA: 8.9%

CDC7 cell division cycle 7-like 1 (CDC7L1) (from UniProt O00311 1-574) (enzyme)
percentage of phospho-synuclein, ELISA, PEAK-Syn cells transfected with kinase cDNA: 8.9%

G protein-coupled receptor kinase 6 (GRK6) (from UniProt P43250 1-576) (enzyme)
fold increase of phospho-synuclein, HEK-synuclein cells: 2 fold
percent phospho-synuclein, ELISA, cells transfected with GPRK6 cDNA: 18.9%

Polo like kinase 2 (PLK2) (from UniProt Q9NYY3 1-685) (enzyme)
fold increase of percent phospho-synuclein, cells transfected with PLK2 cDNA: 4 fold
fold increase of phospho-synuclein over untransfected cells, ELISA, 293-synuclein cells: 4.3 fold
percent phospho-synuclein, ELISA, cells transfected with PLK2 cDNA: 33.2%

Protein kinase, cGMP-dependent, regulatory, Type I (PRKG1) (from UniProt Q13976 2-671) (enzyme)
percentage of phospho-synuclein, ELISA, PEAK-Syn cells transfected with kinase cDNA: 8.9%

— US20080300206A1
